Results: article PMC4756836 (Nucleic Acids Research, 2015)

Molecular target: the molecule itself
Assay: crystal structure

B1: yeast mitochondrial threonyl-tRNA synthetase MST1 (enzyme, S. cerevisiae)
chain: QDLFMTDPLSPGSMFFLPNGAKIFNKLIEFMKLQQKFKFGFNEVVTPLIYKKTLWEKSGHWENYADDMFKVETTDEEKEEYGLKPMNCPGHCLIFGKKDRSYNELPLRFSDFSPLHRNEASGALSGLTRLRKFHQDDGHIFCTPSQVKSEIFNSLKLIDIVYNKIFPFVKGGSGAESNYFINFSTRPDHFIGDLKVWNHAEQVLKEILEESGKPWKLNPGDGAFYGPKLDIMVTDHLRKTHQVATIQLDFQLPERFDLKFKDQDNSYKRPIMIHRATFGSIERFMALLIDSNEGRWPFWLNPYQAVIIPVNTKNVQQLDMCTALQKKLRNELEADDMEPVPLNDWHFNVDLDIRNEPVGYRIKSAILKNYSYLIIVGDEEVQLQKYNIRERDNRKSFEKLTMSQIWEKFIELEKNYK
  stoichiometry N: 2
